1 substance from US20190315839A1 can be followed below.

Common to all, as to experiment: binding ELISA; OD450 on mutant D2VLP divided by OD450 on original pacD2VLP x100
In assay [1] the target is E311R mutant DENV-2 VLP (Dengue virus serotype 2, strain 16681) (UniProt P29990).
Assay [2] addresses K310E mutant DENV-2 VLP (Dengue virus serotype 2, strain 16681) (UniProt P29990).
The target in assay [3] is W101G mutant DENV-2 VLP (Dengue virus serotype 2, strain 16681) (UniProt P29990).

For 4G2 (antibody), the Relative binding (%) in assay [1] amounted to 99.4%; in assay [2], 110%; in assay [3], 9%.
